Results published in patent US20220172420A1 (Daiichi Sankyo, published 2022).

B1: anti-HER3 human antibody U1-59 (antibody, human IgG1, kappa, V domains shown)
VH: QVQLQQWGAGLLKPSETLSLTCAVYGGSFSGYYWSWIRQPPGKGLEWIGEINHSGSTNYNPSLKSRVTISVETSKNQFSLKLSSVTAADTAVYYCARDKWTWYFDLWGRGTLVTVSS
VL: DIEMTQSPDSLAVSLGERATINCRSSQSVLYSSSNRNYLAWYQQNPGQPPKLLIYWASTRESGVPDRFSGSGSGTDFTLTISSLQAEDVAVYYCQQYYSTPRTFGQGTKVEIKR
notes: also called non-conjugated anti-HER3 antibody U1-59
B2: Antibody-drug conjugate (3) (antibody, human IgG1, kappa, V domains shown)
VH: B1 VH
VL: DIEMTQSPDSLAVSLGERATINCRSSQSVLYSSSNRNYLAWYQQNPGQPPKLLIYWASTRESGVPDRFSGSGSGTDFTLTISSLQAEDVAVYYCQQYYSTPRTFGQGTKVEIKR
modifications: may carry the same drug-linker on a cysteine (L chain bound to one drug molecule); position not stated; exatecan drug-linker -(Succinimid-3-yl-N)-CH2CH2CH2CH2CH2-C(=O)-GGFG-NH-CH2CH2CH2-C(=O)-(NH-DX), joined by thioether bonds to cysteines freed by reducing the hinge disulfide bonds; average 4.9 drug molecules per antibody (UV method); positions not given
notes: also called ADC (3)
B3: Antibody-drug conjugate (13) (antibody, human IgG1, kappa, V domains shown)
VH: B1 VH
VL: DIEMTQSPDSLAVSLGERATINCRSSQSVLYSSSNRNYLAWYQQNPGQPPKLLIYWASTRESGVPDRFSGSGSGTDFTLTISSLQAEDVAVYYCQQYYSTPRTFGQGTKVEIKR
modifications: may carry the same drug-linker on a cysteine (L chain bound to one drug molecule); position not stated; exatecan drug-linker -(Succinimid-3-yl-N)-CH2CH2CH2CH2CH2-C(=O)-GGFG-NH-CH2-O-CH2-C(=O)-(NH-DX), joined by thioether bonds to cysteines freed by reducing the hinge disulfide bonds; average 6.2 (procedure E) or 7.0 (procedure F) drug molecules per antibody; positions not given
notes: also called ADC (13)

Target: T1, human epidermal growth factor receptor 3 (HER3) (human, UniProt P21860 20-1342)
T1 construct: whole, on cells; The target is the endogenous HER3 of the cell lines used; also called ErbB3; HER3 protein
Assay: flow cytometry on HCC1569 cells, PE-labelled anti-human secondary antibody, one-site specific binding fit
Procedure: A human breast cancer cell line HCC1569 (CRL-2330) from ATCC was cultured in an RPMI1640 medium (purchased from Invitrogen Corp., containing 10% […] (manufactured by Invitrogen Corp.) and 2 mM L-glutamine (manufactured by Invitrogen Corp.)). The cells were dissociated from the culture plate using ACCUTASE® SOLUTION (Millipore Corp., SCR005) or EDTA (5 mM, phosphate buffered saline (PBS, 137 mM sodium chloride, 2.7 mM potassium chloride, 1.47 mM potassium dihydrogen phosphate, and 10.5 mM disodium hydrogen phosphate)), and the number of living cells was measured by trypan blue treatment.
The cells of each group were reacted with a primary antibody dilution for 45 minutes on ice and then washed with a FACS buffer. Further, 100 uL of a FACS buffer or a reaction solution of a secondary antibody diluted 1/100 (phycoerythrin (PE)-coupled anti human antibody, Dianova GmbH #709-116-149) was added thereto. The cells were treated for 45 minutes on ice in the dark and then washed with a FACS buffer, and dead cells were excluded using a FACS buffer or a FACS buffer supplemented with 7-aminoactinomycin D (7AAD, Sigma-Aldrich Co. LLC, #A9400, 1.1 ug/mL).
The equilibrium binding affinity KD and the maximum binding strength Bmax were calculated using GraphPad Prism software.

Binder	Bmax	Kd [nM]
B1	31800	1.67
B2	28900	1.65
B3	28400	2.76
